Measurements reported in patent publication US20150018283A1.

B1: 1991 2B9c (peptide)
peptide: KLSSIESDV

How the values were obtained:
[1] = target: IL-8RB (UniProt P25025); assay: competitive radioligand binding; 10 µM unlabelled Tat-NR2B9c; competitor labeled IL-8
[2] = target: N-type Ca channels (receptor binding screen of Example 1)
[3] = target: N-type calcium channels in cultured mouse dorsal root ganglion (DRG) neurons (Swiss mice) (UniProt O55017); assay: cell-based or functional assay

Sequence of IL-8RB (P25025 whole entry): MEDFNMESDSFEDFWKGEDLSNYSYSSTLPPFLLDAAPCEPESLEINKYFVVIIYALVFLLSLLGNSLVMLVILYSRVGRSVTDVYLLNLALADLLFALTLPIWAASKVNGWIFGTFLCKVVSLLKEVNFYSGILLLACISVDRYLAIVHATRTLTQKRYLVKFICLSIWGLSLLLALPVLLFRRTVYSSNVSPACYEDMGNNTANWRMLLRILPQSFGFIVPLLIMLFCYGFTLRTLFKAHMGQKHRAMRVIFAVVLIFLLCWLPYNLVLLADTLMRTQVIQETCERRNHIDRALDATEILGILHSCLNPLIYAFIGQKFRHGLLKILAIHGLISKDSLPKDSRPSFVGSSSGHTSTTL

Molecule | % inhibition of labeled ligand binding [1] [%] | % inhibition of labeled ligand binding [2] [%] | Ca^2+ current shown as a percentage, peptide at 100 µM [3] [%]
Tat-NR2B9c (peptide) | 80 | 100 | 
1987 D-Tat-NR2B9c (peptide) |  |  | 82
1990 TAT (peptide) |  |  | 57
1993 F-Tat-NR2B9c (peptide) |  |  | 91
1992 Tat-NR2B9c-AA (peptide) |  |  | 74
B1 |  |  | 94
